Assay results published in US20210269780A1.

Biological target: G3BP (human) (UniProt Q13283)

Substance | percentage of cells with PABPC1-positive stress granules after sodium arsenite
G3BPdi-mCherry-sspB (from UniProt Q13283) | 46 % of cells
mCherry-sspB | 85 % of cells
